The values below come from the DeepSol protein solubility set.

A short description of the series: soluble on expression in E. coli; label from the status in PepcDB or PDB records.
With “MSKKFVNKAEEAVDDALFGLVSSNSNVKFHKSCRRVVHITDLNPSHHVSLIAGGGSGHEPYAAGYVGKGLLTAAIAGNVFASPPSRNVQAALEATRGEAGAILFVINYTGDRLNFGLAAERFNASGGTARVVTIADDVAIDSPNSKVGRRGLAGAVLTIKIAGAMAWEGKSLDEIYETSQKVVSSMGTLGVSLYTGSLPGKNRETELPDDQIEVGLGIHGEPGKFRAQFGSANRIVHSLLDTLRSKMEMREGEKFVVLVNNLGSVSQLEMNIVNGEVLRYFEDHKIGITRFFSGIYMTSLDGHGVSVTILRADDSMLQYLDAPAAAPGWIPALSVQKCVDHQEISDSSSQGDLISEIPASGVTVNAQLVEACVGGVVDAMLESEKHLNQLDAYAGDGDCGSTFAGAAEAIRKQTSGLNYTHPETLLKQLSIIFEQTVGGTSGALYALMFSSAAQSFAQRSQRGEKIDRTSILEALDKANRAVQKYGGARVGDRTMVDGLDAMVEELRKGFSGNEESLDAIFEAAVKASEKAAKATASQTATVGRASYTSSEAQTKPDAGATAISLWLRACWTAYKSEK”, the “soluble on expression in E. coli” value is “not soluble”.

For the sequence “MSKLAIIAGDGIGPEVTAEAVKVLDAVVPGVQKTSYDLGARRFHATGEVLPDSVVAELRNHDAILLGAIGDPSVPSGVLERGLLLRLRFELDHHINLRPARLYPGVASPLSGNPGIDFVVVREGTEGPYTGNGGAIRVGTPNEVATEVSVNTAFGVRRVVADAFERARRRRKHLTLVHKTNVLTFAGGLWLRTVDEVGECYPDVEVAYQHVDAATIHMITDPGRFDVIVTDNLFGDIITDLAAAVCGGIGLAASGNIDATRANPSMFEPVHGSAPDIAGQGIADPTAAIMSVALLLSHLGEHDAAARVDRAVEAHLATRGSERLATSDVGERIAAAL”, the “soluble on expression in E. coli” value is given as “soluble”.

Take “MSKLDLNALNELPKVDRILALAETNAELEKLDAEGRVAWALDNLPGEYVLSSSFGIQAAVSLHLVNQIRPDIPVILTDTGYLFPETYRFIDELTDKLKLNLKVYRATESAAWQEARYGKLWEQGVEGIEKYNDINKVEPMNRALKELNAQTWFAGLRREQSGSRANLPVLAIQRGVFKVLPIIDWDNRTIYQYLQKHGLKYHPLWDEGYLSVGDTHTTRKWEPGMAEEETRFFGLKRECGLHEGLEHHHHHH”: the “soluble on expression in E. coli” value is on record as “soluble”.

Take “MSKLPEIGTKISLTDKAYEIIKDAIMTNIFKPGELLIEEKLAEQLAISRTPLRAALRKLAYDHLVEINSSRNVIVANIGQKDVEEITVVREVLEPLAVKELENNIGEDELKKLEEILCRQKKAVLEDNYEELIKMEYEFHVAIGELTHNKWLHGMLKDINTIVQRYLILSGSLNKYKEVAIKEHEVIISEIRQGNYDKAVESMKCHISNVSSRMLK”: the “soluble on expression in E. coli” value is on record as “not soluble”.

In the case of “MSKPGRTILASKVAETFNTEIINNVEEYKKTHNGQGPLLVGFLANNDPAAKMYATWTQKTSESMGFRYDLRVIEDKDFLEEAIIQANGDDSVNGIMVYFPVFGNAQDQYLQQVVCKEKDVEGLNHVYYQNLYHNVRYLDKENRLKSILPCTPLAIVKILEFLKIYNNLLPEGNRLYGKKCIVINRSEIVGRPLAALLANDGATVYSVDVNNIQKFTRGESLKLNKHHVEDLGEYSEDLLKKCSLDSDVVITGVPSENYKFPTEYIKEGAVCINFACTKNFSDDVKEKASLYVPMTGKVTIAMLLRNMLRLVRNVELSKEK”, the “soluble on expression in E. coli” value is listed as “soluble”.

Regarding “MSKQLLALNIDGALLRSNGKIHQATKDAIEYVKKKGIYVTLVTNRHFRSAQKIAKSLKLDAKLITHSGAYIAEKIDAPFFEKRISDDHTFNIVQVLESYQCNIRLLHEKYSIGNKKKVNSNLLGKALIHPSDPIFYPVQFVESLSDLLMDEPVSAPVIEVYTEHDIQHDITETITKAFPAVDVIRVNDEKLNIVPKGVSKEAGLALVASELGLSMDDVVAIGHQYDDLPMIELAGLGVAMGNAVPEIKRKADWVTRSNDEQGVAYMMKEYFRMQQRKGFLDKFHMKRV”, the “soluble on expression in E. coli” value was “not soluble”.

On to “MSKRKAEEAPAPKLASIFTKKVKPAEEDNNQKSWKFVCWNVAGLRACVKKSDFKEVLAEEPDLVFLGETKCKEWPPEMEETFKNYTKTLVVSTEKNGGYAGVGLLSKCAPMKVHKGIGDPEFDTAGRLIIAEFSKFYFIGAYVPNSGAKLVNLEKRGRWEKLLTEKMKEMDEKKPVIYGGDLNVAHNEIDLKNPESNRNKTAGFTDQERGWFSEMLELGFTDTFRAMHPDEKKYSFWSYLANSRQKDVGWRLDYYVVSNRIMNKVKRSDIMSSVMGSDHAPVVMQIDF”, for which the “soluble on expression in E. coli” value is on record as “soluble”.

As to “MSKSLKKLVEESREKNQPEVDMSDRGISNMLDVNGLFTLSHITQLVLSHNKLTMVPPNIAELKNLEVLNFFNNQIEELPTQISSLQKLKHLNLGMNRLNTLPRGFGSLPALEVLDLTYNNLSENSLPGNFFYLTTLRALYLSDNDFEILPPDIGKLTKLQILSLRDNDLISLPKEIGELTQLKELHIQGNRLTVLPPELGNLDLTGQKQVFKAENNPWVTPIADQFQLGVSHVFEYIRSETYKYLYGRHMQANPEPPKKNNDKSKKISRKPLAAKNR”, the “soluble on expression in E. coli” value is reported as “not soluble”.

In the case of “MSKSTAEIRQAFLDFFHSKGHQVVASSSLVPHNDPTLLFTNAGMNQFKDVFLGLDKRNYSRATTSQRCVRAGGKHNDLENVGYTARHHTFFEMLGNFSFGDYFKHDAIQFAWELLTSEKWFALPKERLWVTVYESDDEAYEIWEKEVGIPRERIIRIGDNKGAPYASDNFWQMGDTGPCGPCTEIFYDHGDHIWGGPPGSPEEDGDRYIEIWNIVFMQFNRQADGTMEPLPKPSVDTGMGLERIAAVLQHVNSNYDIDLFRTLIQAVAKVTGATDLSNKSLRVIADHIRSCAFLIADGVMPSNENRGYVLRRIIRRAVRHGNMLGAKETFFYKLVGPLIDVMGSAGEDLKRQQAQVEQVLKTEEEQFARTLERGLALLDEELAKLSGDTLDGETAFRLYDTYGFPVDLTADVCRERNIKVDEAGFEAAMEEQRRRAREASGFGADYNAMIRVDSASEFKGYDHLELNGKVTALFVDGKAVDAINAGQEAVVVLDQTPFYAESGGQVGDKGELKGANFSFAVEDTQKYGQAIGHIGKLAAGSLKVGDAVQADIDEARRARIRLNHSATHLMHAALRQVLGTHVSQKGSLVNDKVLRFDFSHNEAMKPEEIRAVEDLVNAQIRRNLPIETNIMNLEAAKAKGAMALFGEKYDERVRVLSMGDFSTELCGGTHASRTGDIGLFRIISESGTAAGVRRIEAVTGEGAITTVHADSDRLSEVAHLLKGDSNNLADKVRSVLERTRQLEKELQQLKEQAAAQESANLSSKAIDVNGVKLLVSELSGVEPKMLRTMVDDLKNQLGSTIIVLATVAEGKVSLIAGVSKDVTDRVKAGELIGMVAQQVGGKGGGRPDMAQAGGTDAAALPAALASVKGWVSAKLQ”, the “soluble on expression in E. coli” value was “not soluble”.

For “MSKYAGIVLAGGMSSRFGEPKALAIWKETTFVEHIVKVMGNTLQDIVVISHTDIKERVEQFVQVPVIEDIPHYKGNGPLAGIVSGMEYIEADWYAIMPCDAPNVSHEWFTILLEQTNNEYDAVVPIINGRKQPLLAAYHNRVKEKIYALLQEEKRSMGQLLSQCNVKYVSGEDVQANADWFINVNTKEEYVQAQKDLSNE”, the “soluble on expression in E. coli” value is on record as “soluble”.

For “MSKYSDAKELASLTLGKKTEYANQYDPSLLQPVPRSLNRNDLHLSATLPFQGCDIWTLYELSWLNQKGLPQVAIGEVSIPATSANLIESKSFKLYLNSYNQTRFASWDEVQTRLVHDLSACAGETVTVNVKSLNEYTAEPIVTMQGECIDDQDIEIANYEFDDALLQGAAQGEEVSEVLHSHLLKSNCLITNQPDWGSVEIAYHGAKMNREALLRYLVSFREHNEFHEQCVERIFTDIMRYCQPQSLTVYARYTRRGGLDINPFRSSHQSAPNHNQRMARQ”, the “soluble on expression in E. coli” value was “not soluble”.

On to “MSLADPNESTFARIRRTKKMRIGAVGGGAPYYMKDLASGQWKGFYVDIAKALADDMEAELEITETTWGNSVLDLQSNKIDIFFGLNPTPKRALVVDFSVPVFNNAFGILCKKDFKPKTWAELNSPDVKIAVDQGSSHDQVVSRLIPKAQISRLKTADDATAALQTGRVDAQCLITMLSLTVLKKNPSLGQFVLPTPIFATTSNAGFRRETDKTWRDYVNTWIDFNKGLGFIRNAIITNMELVGVTEADIPPGVSLEGHHHHHH”, for which the “soluble on expression in E. coli” value is on record as “soluble”.

Take “MSLAGEVWLQTHHPDHPLLQTLINGGYHTFANTELQQRQAAGLPPFAHLALLRAEAKDTTSTQQFLATVRKHIPIDNAVECYGPMSAPMPRRAGYERYQLLLSSSQRNTLHRTLNVLIPAIHALPEARRVRWSLDVDPVDLYEGHHHHHH”: the “soluble on expression in E. coli” value is given as “not soluble”.
